Where a chain is given by its changes, count along the chain named.
Experiments:
[1] = molecular target: T1, human CD38 expressed on the surface of recombinant murine preB::300.19 cells (human, UniProt P28907 1-300); test: flow cytometry on hCD38-expressing murine preB::300.19 cells
T1 construct: whole, on cells; also called hCD38-expressing cells; cells expressing human CD38

[2] = molecular target: human CD28 (SPR antigen of Example 2) (human, UniProt P10747 19-152); test: SPR; KD rounded to integer; the cell gives two values for mid/low, the first taken as the CD3mid construct
[3] = molecular target: T2, human CD3 (SPR antigen of Example 2) (human); test: as above
T2 chain: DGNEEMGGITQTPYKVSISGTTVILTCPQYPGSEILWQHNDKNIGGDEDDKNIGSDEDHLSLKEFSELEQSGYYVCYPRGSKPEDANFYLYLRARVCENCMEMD

[4] = molecular target: T3, recombinant human CD38 (SPR antigen of Example 2) (human, UniProt P28907 43-300); test: as above
[5] = molecular target: T4, cynomolgus monkey CD38 expressed on the surface of recombinant murine preB::300.19 cells (cynomolgus monkey, UniProt Q5VAN0 1-301); test: flow cytometry on cCD38-expressing murine preB::300.19 cells, apparent KD (called EC50 in paragraph 336)
T4 construct: whole, on cells; also called cCD38-expressing cells; cells expressing cynomolgus CD38

[6] = molecular target: T4, cynomolgus monkey CD38 expressed on the …; test: flow cytometry on cCD38-expressing murine preB::300.19 cells
[7] = molecular target: T3, recombinant human CD38 (SPR antigen of …); test: SPR against recombinant protein; the cell gives two values for mid/low, the first taken as the CD3mid construct
[8] = molecular target: T1, human CD38 expressed on the surface of …; test: flow cytometry on hCD38-expressing murine preB::300.19 cells, apparent KD (called EC50 in paragraph 336)
[9] = molecular target: T3, recombinant human CD38 (SPR antigen of …); test: SPR, target binding without other targets present
[10] = molecular target: T3, recombinant human CD38 (SPR antigen of …); test: SPR, target binding with the other two targets in saturation
[11] = molecular target: T1, human CD38 expressed on the surface of …; test: flow cytometry on hCD38-expressing murine preB::300.19 cells, apparent KD (called EC50 in paragraph 335)
[12] = molecular target: T1, human CD38 expressed on the surface of …; test: flow cytometry on CD38-expressing murine preB::300.19 cells, apparent KD
[13] = molecular target: T5, hCD38-his (SEQ ID NO: 2) (human, UniProt P28907 45-300); test: SPR (summary table; Table K value rounded)
T5 construct: also called human CD38-histag (ID2); soluble extracellular domain of humanCD38

[14] = molecular target: T6, cCD38-his (SEQ ID NO: 4) (cynomolgus monkey, UniProt Q5VAN0 46-301); test: SPR (summary table; Table K value rounded)
T6 construct: also called cyno CD38-histag (ID3); soluble extracellular domain of cynomolgusCD38

B1: CD38VH1xCD28cvnxCD3mid trispecific binding protein (other)
VH 1: QVQLQESGPGLVKPSQTLSLTCTVSGFSLSDYGVHWVRQPPGKGLEWLGVIWAGGGTNYNPSLKSRKTISKDTSKNQVSLKLSSVTAADTAVYYCARDKGYSYYYSMDYWGQGTTVTVS
VL 1: DIVLTQSPASLAVSPGQRATITCRASESVEYYVTSLMQWYQQKPGQPPKLLIFAASNVESGVPARFSGSGSGTDFTLTINPVEANDVANYYCQQSRKVPYTFGQGTKLEIK
VH 2: QVQLVESGGGVVQPGRSLRLSCAASGFTFTKAWMHWVRQAPGKQLEWVAQIKDKSNSYATYYADSVKGRFTISRDDSKNTLYLQMNSLRAEDTAVYYCRGVYYALSPFDYWGQGTLVTVSS
VL 2: DIVMTQTPLSLSVTPGQPASISCKSSQSLVHNNANTYLSWYLQKPGQSPQSLIYKVSNRFSGVPDRFSGSGSGTDFTLKISRVEAEDVGVYYCGQGTQYPFTFGSGTKVEIK
VH 3: QVQLVQSGAEVVKPGASVKVSCKASGYTFTSYAMHWVKEAPGQRLEWIGYIYPGQGGTNYNQKFQGRATLTADTSASTAYMELSSLRSEDTAVYFCARTGGLRRAYFTYWGQGTLVTVSS
VL 3: DIVLTQSPATLSLSPGERATISCRASQSVSSYGQGFMHWYQQKPGQPPRLLIYGASSRATGIPARFSGSGSGTDFTLTISPLEPEDFAVYYCQQNKEDPWTFGGGTKLEIK
B1 was tested. Which “fold lower apparent affinity than the parental antiCD38_C2-CD38-1_VH1-VL1 antibody” value [1] did it give?
Its value is 9 fold.

What about the Kd [2] of the same binder?
The Kd was 18 nM.

What about the Kd [3] of the same binder?
Its Kd is 23 nM.

What about the Kd [4] of the same binder?
The Kd was 4 nM.

What about the Kd [5] of the same binder?
Its Kd is 7.5 nM.

And the “fold lower apparent affinity than the parental antiCD38_C2-CD38-1_VH1-VL1 antibody” value [6]?
The value was 7.5 fold.

What about the Kd [7] of the same binder?
Its Kd is 4 nM.

And the Kd [8]?
The Kd was 4.4 nM.

B2: CD38SB19xCD28supxCD3mid trispecific binding protein (other)
VH 1: QVQLVQSGAEVVKPGASVKVSCKASGYTFTSYYIHWVRQAPGQGLEWIGSIYPGNVNTNYAQKFQGRATLTVDTSISTAYMELSRLRSDDTAVYYCTRSHYGLDWNFDVWGKGTTVTVSS
VL 1: DIQMTQSPSSLSASVGDRVTITCQASQNIYVWLNWYQQKPGKAPKLLIYKASNLHTGVPSRFSGSGSGTDFTLTISSLQPEDIATYYCQQGQTYPYTFGQGTKLEIK
VH 2: B1 VH 2
VL 2: B1 VL 2
VH 3: QVQLVQSGAEVAKPGTSVKLSCKASGYTFTDYWMQWVKQRPGQGLEWIGTIYPGDGDTGYAQKFQGKATLTADKSSKTVYMHLSSLASEDSAVYYCARGDYYGSNSLDYWGQGTSVTVSS
VL 3: DIVMTQSHLSMSTSLGDPVSITCKASQDVSTVVAWYQQKPGQSPRRLIYSASYRYIGVPDRFTGSGAGTDFTFTISSVQAEDLAVYYCQQHYSPPYTFGGGTKLEIK
Which Kd [9] does the source give for B2 here?
Its Kd is 1.75 nM.

And the Kd [10]?
Its Kd is 2.42 nM.

And the Kd [11]?
The Kd was 4 nM.

B3: antiCD38_C2-CD38-1_VH5-VL3 (antibody, human IgG1, kappa, V domains shown)
VH: B1 VH 3 with P14S, Y32F, A33N, R44G, Q55N, L83I
VL: DIVLTQSPATLSLSPGERATISCRASESVDSYGNGFMHWYQQKPGQPPRLLIYLASSRATGIPARFSGSGSGTDFTLTISPLEPEDFAVYYCQQNKEDPWTFGGGTKLEIKR
Which Kd [12] does the source give for B3 here?
Its Kd is 0.55 nM.

And the Kd [13]?
Its Kd is 0.82 nM.

B4: antiCD38_C2-CD38-1_VH6-VL3 (antibody, human IgG1, kappa, V domains shown)
VH: B1 VH 3 with V20M, Y32F, A33N, Q55N, L83I
VL: B3 VL
What does the source list for B4?
Kd [13]: 0.31 nM; Kd [14]: 0.56 nM

Reference: patent US20200140552A1 (Sanofi, published 2020)
